Results from the supplement of paper PMC9170038.

Tested on: MS2 coat protein
Assay: apparent KD of MS2 coat protein; designed switch direction (-1 OFF switch, 1 ON switch): -1; higher = weaker reporter binding
How it was run: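 Three titration conditions were used: no input, 200 uM small-molecule ligand, and an oligonucleotide input. In each, SNAP-549-labelled MS2 coat protein was raised from 0.7 or 1.5 nM, doubling, to 3 µM over designed RNA switches transcribed on Illumina chips by stalled E. coli RNA polymerase. Curve fits of normalised cluster fluorescence gave values whose per-design median over clusters is the apparent KD.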

[1] = Eterna round: R95, input ligand: microRNA oligo, concentration not stated
[2] = input ligand: microRNA oligo, concentration not stated
[3] = Eterna round: R95, input ligand: FMN 200 uM
[4] = Eterna round: R95, input ligand: none

Sequence	apparent KD of MS2 coat protein [1]	apparent KD of MS2 coat protein (input ligand: FMN 200 uM)	apparent KD of MS2 coat protein [2]	apparent KD of MS2 coat protein (input ligand: none)	apparent KD of MS2 coat protein [3]	apparent KD of MS2 coat protein [4]
CUUUAGUGAGGAUAUUAGUAGUAAUACAAUAGUAUUACUACUGAGAAGGCACAUGAGGAUCACCCAUGUUCCUC [Mat - Exclusion 4 - Mod of Omei - D79] (puzzle: Exclusion 4)	28 nM	–	–	–	–	–
UUUUUGUGAGGAUAUCAGUAGUAGAACAAUAGUACUACUACUGAGAAGGCACAUGAGGAUCACCCAUGUUCCUC [Fiskers Ex 4 Super stable 44 mod 9] (puzzle: Exclusion 4)	52.6 nM	–	–	–	–	–
AAUGAUUGACGAGGAUAUUGUGGUGAAACACGACGAGAAGGCGUAUGUCACAUGAGGAUCACCCAUGUGUGCUUUGUGGAUAUA [Ex NG1 #69] (Eterna round: R96, puzzle: Exclusion NG 1)	–	39.7 nM	24.2 nM	31.1 nM	–	–
CAGUACUGAGGAUAUACAUGAGGAUCACCCAUGUUCUUCGGCUAGGAAACUAGCAAAGGUAGAAGGCAGUACUG [Salish 065 m16] (Eterna round: R97, puzzle: Exclusion 3)	–	285 nM	–	15.7 nM	–	–
CGUUAGUGAGGAUAUGGAAAUAGGUACAUGAGGAUCACCCAUGUUUGAAGGGAAAAGAGCCUAGAAGGCACUAACG [JR_Ex5_Sub055] (Eterna round: R97, puzzle: Exclusion 5)	–	23.5 nM	–	35.2 nM	–	–
CUUGUUUAUGUGAGGAUAUACUGUUAGUAAUGUUUGUAGAAGGUACAUGAGGAUCACCCAUGUUUAUUUUUUUU [JR_BME4_Sub044] (puzzle: Brourd's mod of Exclusion 4)	20.2 nM	–	–	–	–	–
UUUUAACAUGAGGAUCACCCAUGUGAGGAUAUCGAAAUUUAUAUUAAUAUUAUUUAUACGAGAAGGCACAUUUU [JMF 46] (puzzle: Exclusion 1)	64.9 nM	–	–	–	–	–
AGGGAUAAAGGAUAUACAUGAGGAUCACCCAUGUUGAGGAAAGUUAGAUGAGGAGGAAGUAGAAGGUUAGGCGA [JR_Exclu3_Sub086] (puzzle: Exclusion 3)	31.7 nM	–	–	–	31.1 nM	40.4 nM
GAUGAGGUAGGAUAUACGAUAAUAUAGGGUAGAUAUAUAACACAUGAGGAUCACCCAUGUAGAAGGACCAGUAG [Mat - Exclusion 2 - Mod of my Tesla design - D66] (Eterna round: R96, puzzle: Exclusion 2)	–	143 nM	30.3 nM	42.3 nM	–	–
UGUGUGUCAGGAUAUAGUUCGAGUUCGGAAAUGAGCUUGAGCUAGAAGGGACAUGAGGAUCACCCAUGUGCACG [-26.3, -25.3 kcal, A 27%, 1-(ca)1] (Eterna round: R97, puzzle: Exclusion 4)	–	148 nM	–	83.6 nM	–	–
CUGAGCAGACGGAGAUCCAACAUGAGGAUCACCCAUGUCUCAAAAGCUUUUUGCUUGUCUUAUCCUCCUCUGUUCAC [Esqutian] (Eterna round: R96, puzzle: Sensor v3, turn-off variant 1)	–	13.6 nM	222 nM	16.1 nM	–	–
GAUCCACAUGAGGAUCACCCAUGUGAGGAUAUGAUACUAUGUACUUCGGUACAUAGUAUCAGAAGGCAUAUGAA [Ex1-3: 47] (Eterna round: R96, puzzle: Exclusion 1)	–	199 nM	33.2 nM	41.7 nM	–	–
UUUCUGUGAGGAUAUCAGUAGUAAAUAAAUAAAAUUACUACUGAGAAGGCACAUGAGGAUCACCCAUGUUCCUU [salish99_ex3_r3_093] (puzzle: Exclusion 4)	13.1 nM	–	–	–	–	–
UCAAGUUUUUUGUUUUUUAACAUGAGGAUCACCCAUGUAUUUUUAUAGUAUGUGUGAAUAAGAUCUCGUGGUCUUAU [JR_SV3TOV1_Sub099] (puzzle: Sensor v3, turn-off variant 1)	78.1 nM	–	–	–	31.8 nM	36.5 nM
GUGAAUGCAAGCUUUAAAUACAUGAGGAUCACCCAUGUAAACGCUAACCGCGAUAAUUACUGGGUACCUCCCGUCUU [Eternabot (L2) Solution 44] (Eterna round: R97, puzzle: Sensor, turn-off variant 1)	–	8.7 nM	–	24.9 nM	–	–
CCAGCAAGUUCAGCUCGUCACAUGAGGAUCACCCAUGUUAAGUAAUCCUUCUCUUCUAGGUAGCGCCGGAGAGAGGG [Eternabot (Original) Solution 16] (Eterna round: R97, puzzle: Sensor, turn-off variant 1)	–	32.6 nM	–	43.3 nM	–	–
AAGAAGAAGUAAGGAUAUGAAGAUCUGGUGGUGACAUGAGGAUCACCCAUGUGAAAACGAUGAGAUCAGAAGGUAUAAGAAGAA [AK ExNG2-3.3] (Eterna round: R96, puzzle: Exclusion NG 2)	–	116 nM	59.9 nM	89.4 nM	–	–
GGAGGCCAGUAAGGAUAUUCAUGGUAGAUUCAUGAAGAAGGUACGGAGUGUCCUGACAUGAGGAUCACCCAUGUAGCCUCCAAG [Betien] (Eterna round: R96, puzzle: Exclusion NG 1)	–	76.4 nM	25.1 nM	34.3 nM	–	–
AGAUGACUGGAGGAUAUCCGAUGCUUCCUGCCAGGAGAAGGCCGGACAUGAGGAUCACCCAUGUGGUGAGCUCG [Vezaatinle] (puzzle: Exclusion 6)	347 nM	–	–	–	329 nM	444 nM
GUCAGCUCGUCAGGAUAUACAUGAUAGAUCGAUUAAUUAAUUAAUUUAACAUGAGGAUCACCCAUGUAGAAGGGACGAGCUGAC [ENG2/1-B1] (Eterna round: R96, puzzle: Exclusion NG 2)	–	–	39.8 nM	–	–	–
AAUAACUGAGGAUAUACUAAAAUAUGAAUAAAAUAAAUAAAACAUGAGGAUCACCCAUGUAGAAGGCAGAAUAA [JMF's Not so obvious solution 8] (puzzle: Exclusion 2)	23.3 nM	–	–	–	21.4 nM	21.5 nM
AAGAGGUCAGGAUAUUGGGCGGAAAGGGAAAGGAAAGGGCCCAAGAAGGGACAUGAGGAUCACCCAUGUAAGAA [Excls4-I] (puzzle: Exclusion 4)	33 nM	–	–	–	38.5 nM	35.4 nM
AGUAACUAUCACGAAAGUGAUAGUUACAAUAGCAGUGGAACAUGAGGAUCACCCAUGUCCUCAUUUGCUCGUCUUAU [Sensor 3 - 22] (puzzle: Sensor v3, turn-off variant 2)	21.6 nM	–	–	–	36.2 nM	38.4 nM
AGCAACGUACAGGAUAUACUUCACCUUCUAGAAGUAGAAGGGUGCACAUGAGGAUCACCCAUGUUAGCGAGCAG [Eternabot (Original) Solution 25] (Eterna round: R97, puzzle: Exclusion 6)	–	18.4 nM	–	15.9 nM	–	–
UCAAGUAUGUAGGAUAUCGAUGUCUGCGGACAUCGAGAAGGACGUACAUGAGGAUCACCCAUGUAACUUGCAUG [Exclusion 6 - B - 10:c] (puzzle: Exclusion 6)	70.9 nM	–	–	–	–	–
UUUAAUUUUUUUUUUUUACAAGCUUUUUGCUCGUCUUAUACAUGAGGAUCACCCAUGUAGAUGGGAGGUAAAUUAUC [JMF 75] (puzzle: Sensor v3, turn-off variant 2)	160 nM	–	–	–	29.1 nM	25.7 nM
